Measured values taken from patent US20260274910A1, “SINGLE FUSION PROTEIN AND PHARMACEUTICAL COMPOSITION” (MEDI&GENE INC., priority 2023, published 2026).

B1: Human ATPIF1 (peptide, listed as Homo sapiens)
chain: GSDQSENVDRGAGSIREAGGAFGKREQAEEERYFRAQSREQLAALKKHHEEEIVHHKKEIERLQKEIERHKQKIKMLKHDD
B2: His tag Human ATPIF1 (protein)
chain: MGSHHHHHHSSGLVPRGSHMGSDQSENVDRGAGSIREAGGAFGKREQAEEERYFRAQSREQLAALKKHHEEEIVHHKKEIERLQKEIERHKQKIKMLKHDD
notes: Recombinant protein: His tag-wild-type substance (1-81), control group

Experiments:
[1] = mouse, in vivo, 2.5 mg/kg
Procedure: For evaluation, ten-week-old C57BL/6 mice were used, and the mice were reared in a specialized animal facility which provided a normal diet and a 12/12 hour night/day cycle and then used for experimentation.
The synthetic peptide (SEQ ID NO: 8) and fusion protein (SEQ ID NO: 13) were each injected into the mice at a concentration of 2.5 mg/kg, and blood was collected at 0, 0.5, 2, 4, 24 hours after injection. The collected blood was centrifuged and the obtained plasma was analyzed. At this time, in order to perform effective quantification of the substances, each substance was conjugated with Dylight 680 Near-Infrared dye (NIR) in advance prior to injection, and the finally collected blood samples were examined by observing fluorescent signals with a SpectraMax i3 microplate reader device.

3T3-L1 adipocytes = assay: Lipid droplet analysis (BODIPY 493/503, confocal) in 3T3-L1 adipocytes; type: cell-based, mouse; conditions: differentiated 3T3-L1 adipocytes, 100 nM, 30 hours
Procedure: To observe the functionality of the fusion proteins related to lipid metabolism, the 3T3-L1 mouse pre-adipocyte cell line was used as the cell line itself (undifferentiated) or by differentiating into adipocytes. Differentiation into the adipocytes was performed by inducing primary differentiation for the 3T3-L1 cells in a medium containing DMEM, 10% FBS, 10 μg/ml insulin, 0.5 mM IBMX (3-Isobutyl-1-methylxanthine), and 1 μM dexamethasone for 2 days, and inducing secondary differentiation with a medium containing DMEM, 10% FBS, and 10 μg/ml insulin for the remaining 4 days. The adipocytes in which differentiation was finally completed were treated with the test substances at a concentration of 100 nM for 30 hours (Control: PBS) and then used for each test.
In addition, lipid droplets of adipocytes were stained with BODIPY 493/503 dye sample, and then confocal image scanning was performed to analyze the size and diameter of the lipid droplets.

plasma proteins = assay: Plasma protein binding test (PPB); type: in vitro ADME, mice; conditions: mouse plasma, 5 uM, 37° C., 4 hours, 100 kD filter, western blot
Procedure: Such an increase in half-life was further confirmed by measuring plasma protein binding rates (Plasma protein binding test, PPB). […] Each of the plasma of the mice and the fusion protein (SEQ ID NO: 13), and or His tag-wild-type substance (1-81) (SEQ ID NO: 5) was incubated at a concentration of 5 uM at 37° C. for 4 hours. After that, they were centrifuged with a 100 kD filter to obtain fractions of the substance bound to the plasma proteins or fractions of the unbound substance. Each of the obtained fractions was evaluated by western blot.

[2] = test system: follicular cells (dermal papilla cells); assay: Follicular cell proliferation by MTT assay; type: cell-based; conditions: 100 nM, 24 hours; compared with Control (PBS)
Procedure: Whether the test substances of the present invention has effects on preventing hair loss or promoting hair growth was evaluated as follows. Specifically, it was observed whether they have efficacy of improving loss of follicular cells in scalp tissue which is a cause of hair loss, or hair growth due to an increase in hair follicles, by using dermal papilla cells and evaluating cell proliferation of follicular cells.
The follicular cells were treated with each test substance 100 nM (control: PBS) for 24 hours, and the degree of cell proliferation was evaluated by MTT assay.

[3] = test system: Akt and S6 (phosphorylation, p-Akt/p-S6) in C2C12 mouse skeletal muscle cell line; assay: Akt and S6 phosphorylation (western blot) in C2C12 muscle cells; type: cell-based; conditions: 2 hours
Procedure: In order to evaluate functions related to muscle loss diseases, each test substance was treated to the undifferentiated C2C12 mouse skeletal muscle cell line (mouse myoblast cell line) or the cell line in which differentiation into myotubes was completed. Differentiation of the cell line into myotubes was performed by conducting addition of 2% horse serum to culture medium and replacement with new medium every two days for a total of 4 days.
To the undifferentiated or differentiated cell lines, the test substances, fusion proteins (SEQ ID NOs: 1, 2, 3, 7, 14 and 15) were treated at a concentration of 100 nM (Control: PBS treated group) for 2 hours. Thereafter, the cells were immediately washed once and the cells were lysed with RIPA buffer (Radioimmunoprecipitation assay buffer). The activity of Akt and S6 (phosphorylation, p-Akt/p-S6) was observed by western blot. Akt phosphorylation is a well-known marker of activation of cell signaling pathways, and is an indicator of beneficial effects on muscle cells such as promotion of glucose metabolism and promotion of muscle biosynthesis. Similarly, S6 phosphorylation is a well-known marker of mTOR activity, and the activity of mTOR is an indicator showing muscle biosynthesis and various cell signaling pathways.

[4] = C2C12 differentiated into myotubes, 100 nM, control PBS
[5] = Table 6, C2C12, 100 nM, differentiation state not given
[6] = undifferentiated C2C12, 100 nM, control PBS

Molecule	Half-life [1] [h]	Lipid droplet size (3T3-L1 adipocytes)	Maximum lipid droplet diameter per cell (3T3-L1 adipocytes)	Total lipid droplet area (3T3-L1 adipocytes)	Binding rate with the plasma proteins (plasma proteins) [%]	Cell viability (MTT, cell proliferation) [2]	Activity (% increase compared to control) Differentiated Akt [3, 4] [%]	Activity (% increase compared to control) Differentiated S6 [3, 4] [%]	Activity (% increase compared to control) Akt [3, 5] [%]	Activity (% increase compared to control) S6 [3, 5] [%]	Activity (% increase compared to control) Undifferentiated Akt [3, 6] [%]	Activity (% increase compared to control) Undifferentiated S6 [3, 6] [%]
B1	1.6	reduced at a significant level	reduced at a significant level	reduced at a significant level	–	–	–	–	–	–	–	–
B2	–	–	–	–	5	significantly increased	248	262	254	217	165	207
